Results reported in US20240199757A1 (UNIVERSITY OF CHICAGO, published 2024).
Read-outs that look alike come from different tables or passages of the source.

T1: human NT5E expressed on MDA-MB-231 cells (human, UniProt P21589 27-549)
T1 sequence (looked up): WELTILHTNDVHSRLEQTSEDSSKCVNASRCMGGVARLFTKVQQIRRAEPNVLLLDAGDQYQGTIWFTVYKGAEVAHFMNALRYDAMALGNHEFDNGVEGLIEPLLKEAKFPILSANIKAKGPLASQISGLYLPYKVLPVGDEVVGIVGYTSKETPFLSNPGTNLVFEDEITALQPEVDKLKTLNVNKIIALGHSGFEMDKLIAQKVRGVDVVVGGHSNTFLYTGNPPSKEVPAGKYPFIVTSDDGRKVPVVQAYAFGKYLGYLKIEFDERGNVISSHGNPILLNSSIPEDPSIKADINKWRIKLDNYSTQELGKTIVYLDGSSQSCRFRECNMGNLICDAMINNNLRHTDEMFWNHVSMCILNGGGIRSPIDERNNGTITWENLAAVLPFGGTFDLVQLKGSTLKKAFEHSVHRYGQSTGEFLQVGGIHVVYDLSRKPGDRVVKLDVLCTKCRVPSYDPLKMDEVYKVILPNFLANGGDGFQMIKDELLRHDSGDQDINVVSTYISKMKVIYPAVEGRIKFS

T2: Full-length human NT5E (recombinant, in-house) (human, UniProt P21589 27-549)
T2 construct: also called hNT5E; hNT5EWT
T2 sequence: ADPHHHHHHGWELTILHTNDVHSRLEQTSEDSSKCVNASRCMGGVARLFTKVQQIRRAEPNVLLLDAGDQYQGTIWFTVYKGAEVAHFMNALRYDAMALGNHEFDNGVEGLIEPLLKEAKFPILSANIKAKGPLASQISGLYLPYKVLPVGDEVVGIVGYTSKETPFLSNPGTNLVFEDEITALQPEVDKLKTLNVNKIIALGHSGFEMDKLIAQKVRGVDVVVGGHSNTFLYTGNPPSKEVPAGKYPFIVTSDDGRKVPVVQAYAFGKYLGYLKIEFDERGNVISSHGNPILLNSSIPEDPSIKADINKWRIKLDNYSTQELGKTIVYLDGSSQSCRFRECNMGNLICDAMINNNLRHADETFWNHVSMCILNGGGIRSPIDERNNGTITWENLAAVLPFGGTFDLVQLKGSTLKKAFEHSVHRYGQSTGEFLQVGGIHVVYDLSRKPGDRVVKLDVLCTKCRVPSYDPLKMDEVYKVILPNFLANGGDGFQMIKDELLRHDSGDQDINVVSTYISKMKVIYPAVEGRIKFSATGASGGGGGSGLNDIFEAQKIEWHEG

T3: Full-length murine NT5E (recombinant) (murine, UniProt Q61503 29-552)
T3 construct: also called mNT5E
T3 sequence: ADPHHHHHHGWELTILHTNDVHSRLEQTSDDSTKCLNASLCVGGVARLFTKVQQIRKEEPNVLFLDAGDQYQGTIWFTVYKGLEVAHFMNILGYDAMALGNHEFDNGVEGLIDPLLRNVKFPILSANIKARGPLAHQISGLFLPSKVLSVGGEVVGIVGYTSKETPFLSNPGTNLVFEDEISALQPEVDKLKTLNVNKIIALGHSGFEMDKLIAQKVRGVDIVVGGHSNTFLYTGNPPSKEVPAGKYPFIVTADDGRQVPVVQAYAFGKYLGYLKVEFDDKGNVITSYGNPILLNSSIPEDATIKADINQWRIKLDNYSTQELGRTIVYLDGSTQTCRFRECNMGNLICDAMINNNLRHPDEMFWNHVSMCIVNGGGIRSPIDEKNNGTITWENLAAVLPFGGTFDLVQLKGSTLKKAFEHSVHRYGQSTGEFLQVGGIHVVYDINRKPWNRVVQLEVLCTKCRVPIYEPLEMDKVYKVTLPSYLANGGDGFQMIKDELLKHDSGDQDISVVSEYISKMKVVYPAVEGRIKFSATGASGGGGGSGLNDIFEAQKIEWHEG


How the values were obtained:
[1] = target: T1, human NT5E expressed on MDA-MB-231 cells; assay: cell-based or functional assay
[2] = target: T2, Full-length human NT5E (recombinant, …); assay: SPR, His-captured NT5E, 1 mM ATP
Experimental: (§1) All SPR experiments were performed at 25° C. using MASS-1 (Bruker) instrument. hNT5E, mNT5E and cNT5E were immobilized onto a nitrilotriacetic acid (NTA) sensor chip via His-tag. For kinetic experiments, after ligand immobilization, 2-fold serial dilutions of the Fabs were injected. After double-reference subtraction data were analyzed with BiaEvaluation (GE Healthcare) or Sierra Analyser (Bruker) software. The experiments were carried in buffers in presence and absence of 1 mM ATP to compare the kinetic parameters of the Fabs binding to closed and open form of NT5E.

[3] = target: T3, Full-length murine NT5E (recombinant); assay: SPR, His-captured NT5E, 1 mM ATP
Experimental: as §1

[4] = target: T2, Full-length human NT5E (recombinant, …); assay: SPR, His-captured NT5E, no ATP
Experimental: as §1

[5] = target: T3, Full-length murine NT5E (recombinant); assay: SPR, His-captured NT5E, no ATP
Experimental: as §1

[6] = target: T1, human NT5E expressed on MDA-MB-231 cells; assay: flow cytometry on MDA-MB-231 cells, 1 mM ATP
Experimental: (§2) Flow cytometry analysis of antibodies binding to human NT5E expressed on MDA-MB-231 cells in ATP-free condition (black) or in 1 mM ATP (red). Top panel: (left) 1780 Fab and (right) 1780 IgG titrations. […] Binding was measured at the indicated range of antibody concentrations and is expressed as mean±st. dev of median fluorescence intensity (MFI) of 1-2 replicates. Data were analyzed using OriginLab, and EC₅₀ values are shown next to the fitted curves.
(§3) Human MDA-MB-231 cells and murine 4T1 cells were grown to 90% confluency, detached with 5 mM EDTA for 15 min at 37° C. and then resuspended in 37° C. lx PBS (#10010031, Gibco) supplemented with 1% FBS and 1OpM ZnCl2. Separate working buffers (WB) of PBS and 1% FBS with or without fixed nucleotide concentrations were used throughout all washing steps to maintain constant condition. In 96-well plates (#3799, Costar), 0.2×10⁶ cells were added per well. The plates were spun at 500×g for 5 min and the supernatant was removed. Anti-NT5E antibodies were diluted to the desired concentration in 100 μL WB, added to the cells and the plates were incubated for 20 min at 37° C. Plates were spun and cells were washed twice with WB then spun a second time. Cells were stained with 100 μL of secondary antibody (Alexa Fluor 647 AffiniPure Goat Anti-Human IgG, F(ab′)2 fragment specific, #109-605-006, Jackson, 1:200) dilution and plates were incubated for 20 min at 37° C. Cells were washed twice with WB then fixed on ice with WB supplemented with 0.5% PFA. Fixing solution was removed by centrifugation and cells were resuspended in cold 1× PBS. Samples were analyzed by flow cytometry using CytoFLEX (Beckman Coulter) and mean fluorescence intensity (MFI) data was extracted using FlowJo software. Resulting binding data was plotted using OriginLab.

[7] = target: T1, human NT5E expressed on MDA-MB-231 cells; assay: cell-based or functional assay; remark: listed apart in the source
[8] = target: T1, human NT5E expressed on MDA-MB-231 cells; assay: flow cytometry on MDA-MB-231 cells, 1 mM ATP; remark: listed apart in the source
Experimental: as §2, §3

[9] = target: T2, Full-length human NT5E (recombinant, …); assay: SPR, hNT5E-6xHis on NTA chip, primary Fab injection; Fab concentration and ATP condition not given
Experimental: After incubation, the remaining NT5E is probed with αStrep-HRP Ab. If there is competition for binding to NT5E, then a decrease in signal would be expected.
as §1

[10] = target: T3, Full-length murine NT5E (recombinant); assay: SPR, His-captured NT5E, no ATP (* Data generated poor fits)
Experimental: as §1

Binder | IC50 of NT5E activity on MDA-MB-231 cells, no ATP [1] [µM] | IC50 of NT5E activity on MDA-MB-231 cells, with ATP [1] [µM] | Kd [2] [µM] | koff [2] [s⁻¹] | kon [2] [M⁻¹ s⁻¹] | Kd [3] [µM] | koff [3] [s⁻¹] | kon [3] [M⁻¹ s⁻¹] | Kd [4] [µM] | koff [4] [s⁻¹] | kon [4] [M⁻¹ s⁻¹] | Kd [5] [µM] | koff [5] [s⁻¹] | kon [5] [M⁻¹ s⁻¹] | EC50 [6] [µM] | IC50 of NT5E phosphate production on MDA-MB-231 cells, +500 µM ATP [7] [µM] | EC50 [8] [µM] | binding result [9] | Kd [10] [µM]
Medi9447 IgG (antibody, V domains shown) VH: EVQLLESGGGLVQPGGSLRLSCAASGFTFSSYAYSWVRQAPGKGLEWVSAISGSGGRTYYADSVKGRFTISRDNSKNTLYLQMNSLRAEDTAVYYCARLGYGRVDEWGRGTLVTVSS VL: QSVLTQPPSASGTPGQRVTISCSGSLSNIGRNPVNWYQQLPGTAPKLLIYLDNLRLSGVPDRFSGSKSGTSASLAISGLQSEDEADYYCATWDDSHPGWTFGGGTKLTVLG | 0.0003 | 0.001 | – | – | – | – | – | – | – | – | – | – | – | – | – | – | – | – | –
1789 AM32 Fab (Fab, V domains shown, also called Fab32) VH: EVQLVESGGGLVQPGGSLRLSCAASGFNVSYSSIHWVRQAPGKGLEWVARIRGNEGDTYYADSVKGRFTISADTSKNTAYLQMNSLRAEDTAVYYCARNYWGWYPFYYFAFDYWGQGTLVTV VL: DIQMTQSPSSLSASVGDRVTITCRASQSVSSAVAWYQQKPGKAPKLLIYSASSLYSGVPSRFSGSRSGTDFTLTISSLQPEDFATYYCQQGWDYPITFGQGTKVEIKR | – | – | 0.015 | 0.0042 | 270000 | 0.015 | 0.0028 | 190000 | 0.086 | 0.0091 | 110000 | 0.15 | 0.011 | 78000 | – | – | – | – | –
1780 IgG (antibody, V domains shown) VH: EVQLVESGGGLVQPGGSLRLSCAASGFNFYSYSIHWVRQAPGKGLEWVASISSSSGYTYYADSVKGRFTISADTSKNTAYLQMNSLRAEDTAVYYCARYSWWGWHMEGWWGYMNAFDYWGQGTLVTVSS VL: DIQMTQSPSSLSASVGDRVTITCRASQSVSSAVAWYQQKPGKAPKLLIYSASSLYSGVPSRFSGSRSGTDFTLTISSLQPEDFATYYCQQAHPKPITFGQGTKVEIKR | – | – | – | – | – | – | – | – | – | – | – | – | – | – | 0.0196 | 0.0505 | 0.028 | – | –
1557 Fab (Fab, V domains shown) VH: EVQLVESGGGLVQPGGSLRLSCAASGFNVYYSSIHWVRQAPGKGLEWVASISSSSGSTSYADSVKGRFTISADTSKNTAYLQMNSLRAEDTAVYYCARYGWWEYGYGGWWHPALDYWGQGTLVTV VL: DIQMTQSPSSLSASVGDRVTITCRASQSVSSAVAWYQQKPGKAPKLLIYSASSLYSGVPSRFSGSRSGTDFTLTISSLQPEDFATYYCQQVWWGPITFGQGTKVEIKR | – | – | – | – | – | – | – | – | – | – | – | – | – | – | – | – | – | binds | –
1789 AM39 Fab (Fab, V domains shown) VH: EVQLVESGGGLVQPGGSLRLSCAASGFNVSYSSIHWVRQAPGKGLEWVASIRGAGSDTRYADSVKGRFTISADTSKNTAYLQMNSLRAEDTAVYYCARNYWGWYPFYYFAFDYWGQGTLVTV VL: DIQMTQSPSSLSASVGDRVTITCRASQSVSSAVAWYQQKPGKAPKLLIYSASSLYSGVPSRFSGSRSGTDFTLTISSLQPEDFATYYCQQGWDYPITFGQGTKVEIKR | – | – | 0.0079 | 0.0039 | 490000 | 0.012 | 0.0035 | 290000 | 0.035 | 0.0099 | 280000 | – | 0.013 | 140000 | – | – | – | – | 0.099
1789 AM42 Fab (Fab, V domains shown) VH: EVQLVESGGGLVQPGGSLRLSCAASGFNVSYSSIHWVRQAPGKGLEWVAKIRGGHQDTHYADSVKGRFTISADTSKNTAYLQMNSLRAEDTAVYYCARNYWGWYPFYYFAFDYWGQGTLVTV VL: DIQMTQSPSSLSASVGDRVTITCRASQSVSSAVAWYQQKPGKAPKLLIYSASSLYSGVPSRFSGSRSGTDFTLTISSLQPEDFATYYCQQGWDYPITFGQGTKVEIKR | – | – | 0.011 | 0.0036 | 320000 | 0.012 | 0.0029 | 250000 | 0.038 | 0.0067 | 180000 | 0.063 | 0.012 | 190000 | – | – | – | – | –
